Assay results reported in article PMC6299665 (Journal for Immunotherapy of Cancer, 2018).

Experiments:
[1] = target: T1, human OX40, histidine-tagged recombinant (human, UniProt P43489 29-214); experiment: SPR
T1 chain: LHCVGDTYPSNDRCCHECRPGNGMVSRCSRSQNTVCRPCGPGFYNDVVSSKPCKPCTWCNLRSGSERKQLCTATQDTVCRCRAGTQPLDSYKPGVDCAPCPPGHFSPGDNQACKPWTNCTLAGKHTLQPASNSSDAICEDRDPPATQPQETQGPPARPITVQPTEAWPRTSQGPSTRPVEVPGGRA

[2] = target: T2, human OX40, histidine-tagged recombinant (human, UniProt P43489 29-214); experiment: SPR; BioRAD ProteOn XPR36; His-tagged targets immobilised on Ni-activated HTG chip; analyte in PBS/Tween (0.005%) pH 7.0, 3 min injection, 5 min dissociation, flow 80-100 μl/min; conditions: both partners purified
T2 construct: OX40, human, recombinant; also called hOX40-His; source: bought: Acro Biosystems (SPR); for the ELISAs the vendor is one of Jackson ImmunoResearch, Sino Biological, Acro Biosystems, R&D Systems
T2 sequence (looked up): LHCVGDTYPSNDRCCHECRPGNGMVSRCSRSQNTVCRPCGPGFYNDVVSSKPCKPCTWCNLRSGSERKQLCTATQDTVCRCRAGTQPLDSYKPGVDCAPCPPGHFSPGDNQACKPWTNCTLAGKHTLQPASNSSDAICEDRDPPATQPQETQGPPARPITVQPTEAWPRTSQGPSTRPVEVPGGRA

B1: recombinant human OX40L-Fc (Fc fusion, UniProt P23510 51-183, looked up)
chain: QVSHRYPRIQSIKVQFTEYKKEKGFILTSQKEDEIMKVQNNSVIINCDGFYLISLKGYFSQEVNISLHYQKDEEPLFQLKKVRSVNSLMVASLTYKDKVYLNVTTDNTSLDDFHVNGGELILIHQNPGEFCVL
notes: OX40L, human, recombinant Fc fusion; The background says in general that in OX40L-Fc proteins the Fc precedes OX40L; also called hOX40L-Fc; Fc-OX40L; source: bought: Acro Biosystems
koff [1]: 0.00069 s⁻¹ | Kd [2]: 9.28 nM
